The text below walks through data of patent US6734286 (CELLTECH R AND D, dated 2004).

This assay addresses T1, Recombinant human IL-5 (human, UniProt P05113 20-134).
T1 construct: also called human interleukin-5; hIL-5
T1 sequence (looked up): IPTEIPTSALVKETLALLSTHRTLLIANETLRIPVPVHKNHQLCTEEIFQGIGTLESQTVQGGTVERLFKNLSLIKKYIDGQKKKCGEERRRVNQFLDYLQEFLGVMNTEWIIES
The experiment in a line: BIAcore; antibody captured by polyclonal anti-human Fc, recombinant human IL-5 as analyte. As to the method:
Affinities of the chimeric and CDR grafted anti-IL-5 antibodies were determined using Biospecific Interaction Analysis (BIA). Antibodies were produced in CHO cells by transfection of combinations of heavy and light chain genes and purified from culture supernatants on Protein A Sepharose. […] The amount of anti-IL-5 captured for each run was approximately 1600 RU. Recombinant human IL-5 was then passed over the Sensorchip at various concentrations (0.6 to 5 µg/ml) in the above buffer. The Sensorchip was cleaned after each run with 100 mM HCl and 100 mM orthophosphoric acid to remove bound IL-5 and antibody. The sensorgrams generated were analysed using the kinetics software available with the BIAcore machine.

B1: CTIL-5-10 gH/gL6 antibody (antibody, V domains shown)
VH: EVQLVESGGGLVQPGGSLRLSCAVSGLSLTSNSVNWIRQAPGKGLEWVGLIWSNGDTDYNSAIKSRFTISRDTSKSTVYLQMNSLRAEDTAVYYCAREYYGYFDYWGQGTLVTVSS
VL: DIQMTQSPSSLSASVGDRVTITCLASEGISSYLAWYQQKPGKAPKLLIYGANSLQTGVPSRFSGSGSATDYTLTISSLQPEDFATYYCQQSYKFPNTFGQGTKVEVKR
notes: Human constant domains; also called CTIL-5-10 gH/qL6; CDR grafted 39D10
As for B1, the binding result is on record as “binds”.
